Our source for the Km values is patent US20080076824A1, “Compounds That Inhibit Replication Of Human Immunodeficiency Virus” (priority 2004, published 2008).

Type in all cases: biochemical
Substrate in series [1]: NCC(=O)N1CCC[C@H]1C(=O)NCC(N)=O
Briefly: Conversion of [14C]GPG-NH2 to G-NH2 by fetal bovine serum. Particulars: other: derived from GPG-NH2 disappearance curves; pH 3.5. The protocol: (§1) Next, the conversion of radiolabeled [^14C]GPG-NH2 to [^14C]G-NH2 by purified CD26, fetal bovine serum (FBS), human serum (HS) and CEM cell suspensions was analyzed. Radiolabeled [^14C]GPG-NH2 (radiospecificity: 58 mCi/mmol), in which the radiolabeled carbon is located in the main chain carbon of the glycine at the carboxylic acid end of the tripeptide, and [^14C]G-NH2 (radiospecificity: 56 mCi/mmol) in which carbon-2 was radiolabeled were synthesized by Amersham Pharmacia Biotech (Buckinghamshire, England). A variety of these [^14C]GPG-NH2 concentrations were exposed to purified CD26, FBS, HS and CEM cell suspensions and the conversion to G-NH2 was analyzed.
(§2) In another set of experiments, after one hour of exposure, disappearance of intact [^14C]GPG-NH2 was determined by HPLC analysis, as described above, using a cation-exchange Partisphere SCX column and a sodium phosphate buffer gradient at pH 3.5. GPG-NH2 was well-separated from G-NH2 (retention times: 25-27 min and 15-17 min, respectively). […] The GPG-NH2 conversion by the CEM cell suspensions proceeded linearly up to 1.5 mM. Only at higher GPG-NH2 concentrations (e.g., 3 and 5.4 mM), did the conversion curve for the CEM cell suspensions start to level-off slightly.

Substrate in series [2]: NCC(=O)N1CCC[C@H]1C(=O)NCC(N)=O
Briefly: Conversion of GPG-NH2 to GP-OH and G-NH2 by purified CD26. Particulars: other: purified CD26; pH 3.5. As to the method:
In some experiments, approximately, 100 μM GPG-NH2 was exposed to 25 units/l of purified CD26 and the mixture was incubated for up to 400 minutes at room temperature. The lymphocyte surface glycoprotein CD26/dipeptidylpeptidase IV was purified as described before. (See De Meester, J. Immunol. Methods, 189:99-105 (1996), herein expressly incorporated by reference in its entirety). At different time points, an aliquot of the reaction mixture was withdrawn and analyzed on an electrospray ion trap mass spectrometer (Esquire, Bruker, Bremen, Germany). The appearance of the dipeptide GP-OH upon release from the amino terminal end of the GPG-NH2 molecule, as well as, the disappearance of intact GPG-NH2 from the reaction mixture was determined and monitored by electrospray ion trap mass spectometric analysis at different time points (See FIG. 3). Under these experimental conditions, CD26 released GP-OH in a time-dependent manner from GPG-NH2, and virtually completely converted GPG-NH2 to GP-OH and G-NH2 within 4 to 6 hrs of the reaction.
Next, the conversion of radiolabeled [^14C]GPG-NH2 to [^14C]G-NH2 by purified CD26, fetal bovine serum (FBS), human serum (HS) and CEM cell suspensions was analyzed. […] A variety of these [^14C]GPG-NH2 concentrations were exposed to purified CD26, FBS, HS and CEM cell suspensions and the conversion to G-NH2 was analyzed. […]

Substrate in series [3]: NCC(=O)N1CCC[C@H]1C(=O)NCC(N)=O
Briefly: Conversion of [14C]GPG-NH2 to G-NH2 by human serum. Particulars: other: derived from GPG-NH2 disappearance curves; pH 3.5. As to the method: as §1, §2

B1: dipeptidylpeptidase activity associated with FBS (Bos taurus) (protein)
chain: SRRTYTLADYLKNTFRMKFYNLRWVSDHEYLYKQENNILLFNAEYGNSSIFLENSTFDEFGHSINDYSVSPDRQYILFEYNYVKQWRHSYTASYDIYDLNKRQLITEERIPNNTQWITWSSVGHKLAYVWNNDIYVKNEPNSPSQRITWTGKKDVIYNGITDWVYEEEVFSAYSALWWSPNSTFLAYAQFNDTEVPLIEYSFYSDESLQYPKTVKIPYPKAGAVNPTIKFFVVNISSLSPNINATSQQIVPPGSVLIGDHYLCDVTWVTEERISLQWLRRIQNYSIMDICDYDRSTGRWISSVGRQHIEISTTGWVGRFRPAEPHFTSDGNSFYKIISNEEGYKHICHFQTDKRNCTFITKGAWEVIGIEALTSDYLYYISNEYKGMPGARNLYKIQLNDYTKVTCLSCELNPDRCQYYSVSFSQEAKYYQLRCSGPGLPLYTLHNSNNDKELRVLENNSDLDQVLQDVQMPSKKLDFIHLHGTKFWYQMILPPHFDKSKKYPLLLEVYAGPCSQKADAIFRLNWATYLASTENIIVASFDGRGSGYQGDKIMHAINRRLGTFEVEDQIEATRQFSKMGFVDDKRIAIWGWSYGGYVTSMVLGAGSGVFKCGIAVAPVSKWEYYDSVYTERYMGLPTPEDNLDSYRNSTVMSRAENFKQVEYLLIHGTADDNVHFQQSAQISKALVDAGVDFQSMWYTDEDHGIASSTAHQHIYTHMSHFLKQCFSLL
notes: from tissue; host or cells: fetal bovine serum
Regarding B1, the Michaelis-Menten constant (Km) – broadly, the substrate concentration at which the rate is half of its maximum – in series [1] was determined as 1400 µM.

B2: CD26/dipeptidylpeptidase IV (Homo sapiens) (protein)
chain: MKTPWKVLLGLLGAAALVTIITVPVVLLNKGTDDATADSRKTYTLTDYLKNTYRLKLYSLRWISDHEYLYKQENNILVFNAEYGNSSVFLENSTFDEFGHSINDYSISPDGQFILLEYNYVKQWRHSYTASYDIYDLNKRQLITEERIPNNTQWVTWSPVGHKLAYVWNNDIYVKIEPNLPSYRITWTGKEDIIYNGITDWVYEEEVFSAYSALWWSPNGTFLAYAQFNDTEVPLIEYSFYSDESLQYPKTVRVPYPKAGAVNPTVKFFVVNTDSLSSVTNATSIQITAPASMLIGDHYLCDVTWATQERISLQWLRRIQNYSVMDICDYDESSGRWNCLVARQHIEMSTTGWVGRFRPSEPHFTLDGNSFYKIISNEEGYRHICYFQIDKKDCTFITKGTWEVIGIEALTSDYLYYISNEYKGMPGGRNLYKIQLSDYTKVTCLSCELNPERCQYYSVSFSKEAKYYQLRCSGPGLPLYTLHSSVNDKGLRVLEDNSALDKMLQNVQMPSKKLDFIILNETKFWYQMILPPHFDKSKKYPLLLDVYAGPCSQKADTVFRLNWATYLASTENIIVASFDGRGSGYQGDKIMHAINRRLGTFEVEDQIEAARQFSKMGFVDNKRIAIWGWSYGGYVTSMVLGSGSGVFKCGIAVAPVSRWEYYDSVYTERYMGLPTPEDNLDHYRNSTVMSRAENFKQVEYLLIHGTADDNVHFQQSAQISKALVDVGVDFQAMWYTDEDHGIASSTAHQHIYTHMSHFIKQCFSLP
notes: made in house; by own knowledge a natural human source (seminal plasma), not recombinant
In the case of B2, in series [2], the Michaelis-Menten constant (Km) was 183 µM.

B3: dipeptidylpeptidase activity associated with HS (Homo sapiens) (protein)
chain: SRKTYTLTDYLKNTYRLKLYSLRWISDHEYLYKQENNILVFNAEYGNSSVFLENSTFDEFGHSINDYSISPDGQFILLEYNYVKQWRHSYTASYDIYDLNKRQLITEERIPNNTQWVTWSPVGHKLAYVWNNDIYVKIEPNLPSYRITWTGKEDIIYNGITDWVYEEEVFSAYSALWWSPNGTFLAYAQFNDTEVPLIEYSFYSDESLQYPKTVRVPYPKAGAVNPTVKFFVVNTDSLSSVTNATSIQITAPASMLIGDHYLCDVTWATQERISLQWLRRIQNYSVMDICDYDESSGRWNCLVARQHIEMSTTGWVGRFRPSEPHFTLDGNSFYKIISNEEGYRHICYFQIDKKDCTFITKGTWEVIGIEALTSDYLYYISNEYKGMPGGRNLYKIQLSDYTKVTCLSCELNPERCQYYSVSFSKEAKYYQLRCSGPGLPLYTLHSSVNDKGLRVLEDNSALDKMLQNVQMPSKKLDFIILNETKFWYQMILPPHFDKSKKYPLLLDVYAGPCSQKADTVFRLNWATYLASTENIIVASFDGRGSGYQGDKIMHAINRRLGTFEVEDQIEAARQFSKMGFVDNKRIAIWGWSYGGYVTSMVLGSGSGVFKCGIAVAPVSRWEYYDSVYTERYMGLPTPEDNLDHYRNSTVMSRAENFKQVEYLLIHGTADDNVHFQQSAQISKALVDVGVDFQAMWYTDEDHGIASSTAHQHIYTHMSHFIKQCFSLP
notes: from tissue; host or cells: human serum
With B3, the Km in series [3] came out at 450 µM.
